Measured values reported in PMC3572902.

Columns and labels:
[1] = biological target: Env of pseudovirus DJ263.8 (HIV-1)
[2] = biological target: Env of pseudovirus HXB2.DG (HIV-1) (UniProt P04578)
[3] = biological target: Env of pseudovirus MW965.26 (HIV-1)
[4] = biological target: Env of pseudovirus SF162.LS (HIV-1)
[5] = biological target: Env of pseudovirus SS1196.1 (HIV-1)
[6] = biological target: recombinant gp120 JR-FL (HIV-1); test: ELISA
[7] = biological target: Env of pseudovirus 6535.3 (HIV-1)
[8] = biological target: Env of pseudovirus BaL.26 (HIV-1)
[9] = biological target: Env of pseudovirus Bx08.16 (HIV-1)
[10] = biological target: recombinant gp120 MSC5007 (HIV-1); test: ELISA
[11] = biological target: recombinant gp120 ZM53M (HIV-1); test: ELISA
[12] = biological target: fusion protein V1V2_(Case-A2)-gp70 (HIV-1); test: ELISA
[13] = biological target: recombinant gp120 REJO4541 (HIV-1); test: ELISA

Row | Molecule | IC50 of neutralisation of pseudovirus DJ263.8 (TZM-bl cell assay) [1] | IC50 of neutralisation of pseudovirus HXB2.DG (TZM-bl cell assay) [2] | IC50 of neutralisation of pseudovirus MW965.26 (TZM-bl cell assay) [3] | IC50 of neutralisation of pseudovirus SF162.LS (TZM-bl cell assay) [4] | IC50 of neutralisation of pseudovirus SS1196.1 (TZM-bl cell assay) [5] | O.D. (ELISA, mAb at 10 μg/ml) [6] | IC50 of neutralisation of pseudovirus 6535.3 (TZM-bl cell assay) [7] | IC50 of neutralisation of pseudovirus BaL.26 (TZM-bl cell assay) [8] | IC50 of neutralisation of pseudovirus Bx08.16 (TZM-bl cell assay) [9] | O.D. (ELISA, mAb at 10 μg/ml) [10] | O.D. (ELISA, mAb at 10 μg/ml) [11] | percent inhibition of the binding of biotinylated 697 to V1V2-gp70 [12] | O.D. (ELISA, mAb at 10 μg/ml) [13]
1 | human anti-V2 monoclonal antibody 1393A | 11.1 µg/mL | 19.8 µg/mL | 0.8 µg/mL | 12.5 µg/mL | 88.7 µg/mL | 4 O.D. |  |  |  |  |  |  | 
2 | human anti-V2 monoclonal antibody 2158 |  | 17.8 µg/mL | 0.8 µg/mL | 6.4 µg/mL | 27.6 µg/mL |  |  |  |  |  |  |  | 
3 | human anti-V2 monoclonal antibody 697 |  |  |  |  |  | 4 O.D. |  |  |  |  |  |  | 
4 | human anti-V2 monoclonal antibody 1357 | 29.2 µg/mL | 36.9 µg/mL | 0.8 µg/mL | 33.5 µg/mL |  | 4 O.D. |  |  |  |  |  |  | 
5 | human anti-V2 monoclonal antibody 830A |  | > 50 µg/mL | < 0.4 µg/mL | 6.2 µg/mL | > 50 µg/mL |  | > 50 µg/mL | 36.1 µg/mL | > 50 µg/mL | 4 O.D. |  |  | 
6 | human anti-V2 monoclonal antibody 1361 | 11.8 µg/mL | 18.6 µg/mL | < 0.4 µg/mL | 5.4 µg/mL | 23.8 µg/mL |  |  |  |  |  | 4 O.D. |  | 
7 | human anti-V2 monoclonal antibody 2297 |  |  |  |  |  |  |  |  |  |  |  | 47% | 4 O.D.
8 | human anti-V2 monoclonal antibody 697 (antibody, V domains shown) VH: QVQLVQSGAEVKKPGSSVKVSCKASGGNFNTYTISWVRQAPGQGLEWMGRIIPIFGIVNPAQKFPGRVTINVDKSTNTAYMELSSLRSEDTAVYYCATSGVGLHFGYFDYWGQGTQVTVSS VL: QSVLTQPPSVSGAPGQRVTISCTGSSSNIGAHYDVHWYQQLPGTAPKLLIYGNSNRPSGVPDRFSGSKSGTSASLAITGLQAEDEADYYCQSYDSSLSGYVFGTGTKVTVL | 38.6 µg/mL |  | 1.8 µg/mL | 19.9 µg/mL | 16.8 µg/mL |  |  | 20.2 µg/mL | 11.2 µg/mL |  |  |  | 
